According to the supplement of paper PMC10126150:
± gives the standard deviation of the averaged measurements.

Test system: ATP
Assay: switch fluorescence ratio, 500 uM ATP over buffer (Cy3 cluster intensity, sum of 5 cycles each) (fold (ratio)); higher = stronger signal-on switching upon ATP binding; sequences stand for … in TCGTCGGCAGCGTCAGATGTGTATAAGAGACAGTTTTTTTTTTTTTTTTTTTTTTTTT…TC
Details: aptamer strand: ATP DNA aptamer (quencher-CACCTGGGGGAGTATTGCGGAGGAAGG + anchor), 100 nM annealed; ATP concentration: 500 uM
Method in brief: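 Clusters carrying Cy3-labelled switching strands on a modified Illumina MiSeq flow-cell were annealed to 100 nM quencher-labelled ATP aptamer and imaged in selection buffer. They were imaged again after 15 min with 500 uM ATP at 22 °C, over five buffer/ATP cycles with NaOH stripping and re-annealing in between. For each cluster, the fluorescence ratio is the summed Cy3 intensity of the target cycles divided by that of the buffer cycles, averaged per switch-domain sequence. Clusters outside 100-1000 RFU were left out.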
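Further: ATP exposure 15 min at 22 °C before imaging.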

| Sequence | switch fluorescence ratio |
| --- | --- |
| AGTGTATAAA | 1.042 ± 0.0077 |
| AGTGTATTGA | 1 ± 0.036 |
| AGTGTCGTGG | 1 ± 0.046 |
| AGTGTCTCCT | 1.02 ± 0.058 |
| AGTGTGCAGG | 0.992 ± 0.017 |
| AGTGTGCGTG | 0.9812 ± 0.0076 |
| AGTGTGGGTA | 0.99 ± 0.021 |
| AGTGTGGGTT | 0.979 ± 0.0047 |
| AGTGTGTTAG | 0.987 ± 0.015 |
| AGTGTGTTTT | 0.996 ± 0.015 |
| AGTTAAAGAG | 1.01 ± 0.021 |
| AGTTACTTAG | 1.07 ± 0.038 |
| AGTTAGGAGT | 0.9895 ± 0.0087 |
| AGTTAGTGAA | 0.99 ± 0.022 |
| AGTTAGTTTG | 0.961 ± 0.022 |
| AGTTATACAC | 1.014 ± 0.0099 |
| AGTTATATTG | 0.997 ± 0.07 |
| AGTTATCGAC | 1.01 ± 0.021 |
| AGTTATCTTA | 1.02 ± 0.011 |
| AGTTATGAGT | 1.01 ± 0.054 |
| AGTTATGGGG | 1 ± 0.032 |
| AGTTATTTCG | 0.993 ± 0.018 |
| AGTTCAAGCT | 1.02 ± 0.007 |
| AGTTCAGGGC | 1.003 ± 0.004 |
| AGTTCCAAAA | 1.07 ± 0.1 |

| Sequence | switch fluorescence ratio |
| --- | --- |
| AGTTCCATTT | 0.97 ± 0.028 |
| AGTTCGCTAA | 1.012 ± 0.003 |
| AGTTCGGCTA | 0.998 ± 0.036 |
| AGTTCGGGAG | 0.99 ± 0.013 |
| AGTTCGGTGG | 0.962 ± 0.0022 |
| AGTTCGTAAA | 1.02 ± 0.029 |
| AGTTGAGAGA | 1.01 ± 0.018 |
| AGTTGAGTTT | 0.992 ± 0.026 |
| AGTTGCCAGC | 0.994 ± 0.01 |
| AGTTGCTTCG | 0.975 ± 0.026 |
| AGTTGGACGC | 1.07 ± 0.021 |
| AGTTGGGGCG | 1.01 ± 0.039 |
| AGTTGGGGGC | 1 ± 0.079 |
| AGTTGGGTTG | 1 ± 0.023 |
| AGTTGGTCCT | 1.01 ± 0.017 |
| AGTTGTACTA | 0.9633 ± 0.0046 |
| AGTTGTAGTT | 0.972 ± 0.041 |
| AGTTGTGTCG | 0.955 ± 0.02 |
| AGTTTAAGTG | 1.01 ± 0.013 |
| AGTTTAATTA | 0.971 ± 0.051 |
| AGTTTATAAT | 0.982 ± 0.023 |
| AGTTTATCAT | 0.9996 ± 0.0089 |
| AGTTTATTAC | 1.47 ± 0.68 |
| AGTTTCTACG | 0.994 ± 0.015 |
| AGTTTCTGTG | 0.968 ± 0.059 |

| Sequence | switch fluorescence ratio |
| --- | --- |
| AGTTTGAAAG | 1.01 ± 0.017 |
| AGTTTGCTCG | 0.971 ± 0.093 |
| AGTTTGGCAC | 1.05 ± 0.057 |
| AGTTTGGCAT | 0.9958 ± 0.0071 |
| AGTTTGGTTC | 0.9876 ± 0.0078 |
| AGTTTGTCTG | 0.9665 ± 0.007 |
| AGTTTTAGCT | 0.984 ± 0.029 |
| AGTTTTGAAA | 0.9909 ± 0.0021 |
| AGTTTTGCCT | 0.981 ± 0.032 |
| AGTTTTGGCA | 1.03 ± 0.015 |
| AGTTTTGTGC | 1.005 ± 0.0017 |
| AGTTTTGTTT | 1.01 ± 0.02 |
| AGTTTTTAGA | 1.03 ± 0.033 |
| AGTTTTTAGC | 1.01 ± 0.047 |
| AGTTTTTAGG | 0.99 ± 0.024 |
| AGTTTTTGGC | 0.999 ± 0.021 |
| AGTTTTTTAG | 0.98 ± 0.015 |
| ATAAAAGTCT | 1.03 ± 0.032 |
| ATAAACTAGA | 1.01 ± 0.019 |
| ATAAAGACGT | 1.02 ± 0.037 |
| ATAAAGAGGC | 0.978 ± 0.066 |
| ATAAAGTGGA | 0.984 ± 0.044 |
| ATAAAGTTGG | 0.991 ± 0.0075 |
| ATAAATGCGG | 1.02 ± 0.041 |
| ATAAATGTCA | 1.01 ± 0.026 |

| Sequence | switch fluorescence ratio |
| --- | --- |
| ATAAATTAGT | 0.998 ± 0.018 |
| ATAAATTTGT | 0.967 ± 0.019 |
| ATAACAGGTA | 1.009 ± 0.005 |
| ATAACATTAG | 0.9984 ± 0.0069 |
| ATAACGGGAT | 1.26 ± 0.42 |
| ATAACTGTAT | 1.122 ± 0.0049 |
| ATAACTTGGG | 0.994 ± 0.041 |
| ATAAGAAATA | 0.996 ± 0.027 |
| ATAAGAGGGT | 0.976 ± 0.049 |
| ATAAGATTGC | 0.991 ± 0.042 |
| ATAAGCCCGT | 0.976 ± 0.014 |
| ATAAGCGTCG | 1.02 ± 0.013 |
| ATAAGCTTGC | 1.128 ± 0.0064 |
| ATAAGGAAGT | 1.02 ± 0.028 |
| ATAAGGCCCG | 1.04 ± 0.078 |
| ATAAGGCGGG | 0.971 ± 0.031 |
| ATAAGGGAGG | 0.979 ± 0.022 |
| ATAAGGGCTA | 0.99 ± 0.031 |
| ATAAGGGGTA | 0.98 ± 0.019 |
| ATAAGGGTTT | 0.9905 ± 0.0095 |
| ATAAGGTACG | 1.05 ± 0.077 |
| ATAAGGTTGG | 0.988 ± 0.029 |
| ATAAGTATGT | 1 ± 0.018 |
| ATAAGTGAAA | 1.07 ± 0.15 |
| ATAAGTGAAT | 1.01 ± 0.013 |

| Sequence | switch fluorescence ratio |
| --- | --- |
| ATAAGTGTTG | 0.979 ± 0.017 |
| ATAAGTTTTT | 1 ± 0.023 |
| ATAATAGGGC | 1 ± 0.015 |
| ATAATCGGTG | 0.981 ± 0.041 |
| ATAATGGGCG | 0.995 ± 0.058 |
| ATAATGGGGA | 1 ± 0.018 |
| ATAATGGGGG | 0.977 ± 0.027 |
| ATAATGGTTT | 0.987 ± 0.056 |
| ATAATGTCGA | 1.02 ± 0.026 |
| ATAATTGAAG | 0.99 ± 0.027 |
| ATAATTGGTG | 1.03 ± 0.018 |
| ATAATTTCGG | 1.01 ± 0.026 |
| ATAATTTGAT | 0.983 ± 0.023 |
| ATACACGGCG | 1.045 ± 0.0087 |
| ATACAGCGA | 1.066 ± 0.01 |
| ATACAGGAAC | 1.03 ± 0.038 |
| ATACCATTTC | 1.03 ± 0.049 |
| ATACCCAAGC | 1.09 ± 0.011 |
| ATACCTAGCT | 1.05 ± 0.019 |
| ATACGAGATT | 1.009 ± 0.0079 |
| ATACGCAGGG | 1.06 ± 0.061 |
| ATACGCTGTT | 0.9875 ± 0.0082 |
| ATACGGCCCC | 1.2 ± 0.1 |
| ATACGTGGCA | 0.9601 ± 0.0037 |
| ATACTATATT | 1.05 ± 0.017 |

| Sequence | switch fluorescence ratio |
| --- | --- |
| ATACTATTAT | 1.03 ± 0.013 |
| ATACTGGGGT | 1.04 ± 0.056 |
| ATACTTACTT | 1.197 ± 0.011 |
| ATACTTTATT | 1.09 ± 0.034 |
| ATACTTTTTT | 1.01 ± 0.061 |
| ATAGAAGGTG | 1.43 ± 0.025 |
| ATAGAATGGT | 0.9829 ± 0.00046 |
| ATAGAATTGG | 1.02 ± 0.021 |
| ATAGACTTAT | 0.9765 ± 0.0093 |
| ATAGAGGAGG | 1 ± 0.021 |
| ATAGAGGCTG | 1.04 ± 0.064 |
| ATAGAGGGAT | 0.98 ± 0.026 |
| ATAGAGGGGG | 0.996 ± 0.03 |
| ATAGATCCTT | 0.9996 ± 0.0087 |
| ATAGATGAGT | 1.012 ± 0.0048 |
| ATAGATTGTT | 1.39 ± 0.59 |
| ATAGCACGTT | 1.03 ± 0.025 |
| ATAGCAGAAG | 1.06 ± 0.012 |
| ATAGCAGGCG | 1.01 ± 0.027 |
| ATAGCGCCGT | 1.01 ± 0.011 |
| ATAGCTTGTA | 0.995 ± 0.037 |
| ATAGCTTGTG | 0.996 ± 0.023 |
| ATAGGACATC | 1.03 ± 0.04 |
| ATAGGAGTAG | 0.993 ± 0.036 |
| ATAGGAGTCT | 1.09 ± 0.016 |

| Sequence | switch fluorescence ratio |
| --- | --- |
| ATAGGATGAG | 1.022 ± 0.0091 |
| ATAGGCACAT | 1.03 ± 0.029 |
| ATAGGCATCA | 1.18 ± 0.3 |
| ATAGGCGTCG | 0.967 ± 0.032 |
| ATAGGCTATA | 0.976 ± 0.025 |
| ATAGGGAGAG | 0.987 ± 0.016 |
| ATAGGGAGGC | 0.967 ± 0.035 |
| ATAGGGATTG | 0.996 ± 0.031 |
| ATAGGGCCGC | 1.02 ± 0.034 |
| ATAGGGCG | 0.987 ± 0.011 |
| ATAGGGGGGT | 1.02 ± 0.018 |
| ATAGGGTACA | 1.11 ± 0.052 |
| ATAGGTAGGG | 0.984 ± 0.0086 |
| ATAGGTATGC | 1 ± 0.06 |
| ATAGGTCAAC | 0.992 ± 0.044 |
| ATAGTACGCC | 1.28 ± 0.33 |
| ATAGTAGTAG | 0.998 ± 0.011 |
| ATAGTAGTGT | 0.998 ± 0.015 |
| ATAGTATAAG | 1.002 ± 0.0073 |
| ATAGTATATT | 0.982 ± 0.044 |
| ATAGTATGGG | 0.99 ± 0.046 |
| ATAGTCAGGG | 0.988 ± 0.036 |
| ATAGTCATAC | 1.25 ± 0.099 |
| ATAGTCTTTT | 1.02 ± 0.034 |
| ATAGTGATAT | 1.06 ± 0.11 |

| Sequence | switch fluorescence ratio |
| --- | --- |
| ATAGTGGTTT | 1.02 ± 0.021 |
| ATAGTGTGTT | 0.989 ± 0.021 |
| ATAGTTATGG | 0.992 ± 0.011 |
| ATAGTTGCGG | 1.047 ± 0.0011 |
| ATAGTTGGC | 1.04 ± 0.07 |
| ATAGTTGTGG | 0.977 ± 0.025 |
| ATAGTTGTTT | 1 ± 0.019 |
| ATATAAAAAG | 1.02 ± 0.061 |
| ATATAAGTGA | 0.9543 ± 0.0063 |
| ATATAATACG | 1.01 ± 0.024 |
| ATATACAGGG | 1.06 ± 0.024 |
| ATATACATGT | 1.02 ± 0.038 |
| ATATACTTCT | 1.02 ± 0.025 |
| ATATAGCACG | 1.02 ± 0.033 |
| ATATAGGTGG | 0.999 ± 0.026 |
| ATATATAGTT | 1.043 ± 0.01 |
| ATATATGAGG | 0.974 ± 0.03 |
| ATATATTTAG | 0.996 ± 0.012 |
| ATATCTCGAG | 0.981 ± 0.02 |
| ATATGAACGA | 1.021 ± 0.0066 |
| ATATGAGGGG | 0.965 ± 0.027 |
| ATATGAGGTT | 0.977 ± 0.023 |
| ATATGAGTGA | 0.985 ± 0.013 |
| ATATGATGTA | 0.966 ± 0.014 |
| ATATGATTAG | 0.993 ± 0.021 |
